In publication PMC7026407, “Multiple Growth Factor Targeting by Engineered Insulin-like Growth Factor Binding Protein-3 Augments EGF Receptor Tyrosine Kinase Inhibitor Efficacy” (Scientific Reports, 2020):

B1: VEGF-B (ligand, UniProt P49765 22-207, looked up)
chain: PVSQPDAPGHQRKVVSWIDVYTRATCQPREVVVPLTVELMGTVAKQLVPSCVTVQRCGGCCPDDGLECVPTGQHQVRMQILMIRYPSSQLGEMSLEEHSQCECRPKKKDSAVKPDRAATPHHRPQPRSVPGWDSAPGAPSPADITHPTPAPGPSAHAAPSTTSALTPGPAAAAADAAASSVAKGGA
notes: vascular endothelial growth factor B
B2: D3 (Fc fusion)
chain: GASSAGLGPVVRCEPCDARALAQCAPPPAVCAELVREPGCGCCLTCALSEGQPCGIYTERCGSGLRCQPSPDEARPLQALLDGRGLCVNASAVSRPAPPAPGNASESEEDRSAGSVESPSVSSTHRVSDPKFHPKGHAKVDYESQSTDTQNFSSESKRETEYGPCRREMEDTLNHLKFLNVLSPRGVHIPNCDKKGFYKKKQCRPSKGRKRGFCWCVDKYGQPLPGYTTKGKEDVHCYSMQSK
modifications: Secreted Fc-fusion dimer; Fc omitted. Deletions 121-126, 166-174 and 180-185 are in 56662 precursor numbering (UniProt = construct + 2). The IGFBP-2 signal peptide is removed.
B3: D3 (Fc fusion)
chain: B2 chain
modifications: Secreted Fc-fusion dimer; Fc omitted. Deletions 121-126, 166-174 and 180-185 are in 56662 precursor numbering (UniProt = construct + 2; the offset agrees with the H3t33-type deletion printed in …)
B4: IGFBP-7 (natural protein, UniProt Q16270 27-282, looked up)
chain: SSSDTCGPCEPASCPPLPPLGCLLGETRDACGCCPMCARGEGEPCGGGGAGRGYCAPGMECVKSRKRRKGKAGAAAGGPGVSGVCVCKSRYPVCGSDGTTYPSGCQLRAASQRAESRGEKAITQVSKGTCEQGPSIVTPPKDIWNVTGAQVYLSCEVIGIPTPVLIWNKVKRGHYGVQRTELLPGDRDNLAIQTRGGPEKHEVTGWVLVSPLSKEDAGEYECHASNSQGQASASAKITVVDALHEIPVKKGEGAEL
notes: source: bought (commercially available, carrier-free)
B5: neuregulin-1 (ligand)
chain: SERKEGRGKGKGKKKERGSGKKPESAAGSQSPALPPRLKEMKSQESAAGSKLVLRCETSSEYSSLRFKWFKNGNELNRKNKPQNIKIQKKPGKSELRINKASLADSGEYMCKVISKLGNDSASANITIVESNEIITGMPASTEGAYVSSESPIRISVSTEGANTSSSTSTSTTGTSHLVKCAEKEKTFCVNGGECFMVKDLSNPSRYLCKCPNEFTGDRCQNYVMASFYKHLGIEFMEAEELYQK
modifications: R&D 377-HB, neuregulin extracellular domain, taken as NRG1-beta1 Ser2-Lys246; the paper prints only the catalogue number and 'extracellular domain'.
B6: PDGF BB (ligand, UniProt P01127 82-190, looked up)
chain: SLGSLTIAEPAMIAECKTRTEVFEISRRLIDRTNANFLVWPPCVEVQRCSGCCNNRNVQCRPTQVQLRPVQVRKIEIVRKKPIFKKATVTLEDHLACKCETVAAARPVT
notes: platelet-derived growth factor B chain; Homodimer of B chains by its name
B7: PDGF BB (ligand, UniProt P01127 82-190, looked up)
chain: B6 chain
notes: platelet-derived growth factor B chain

Key:
Conditions in all cases: both partners purified
IGFBP-2 = molecular target: T1, IGFBP-2 (UniProt P18065 36-325); assay: SPR; IGF binding protein or Fc fusion amine-coupled to a CM4 chip, growth factor as analyte; Biacore T100/T200; HBS-P, with 0.2 mg/ml BSA or 0.65 M NaCl to reduce non-specific binding; 25 °C; 1:1 binding fit
T1 sequence (looked up): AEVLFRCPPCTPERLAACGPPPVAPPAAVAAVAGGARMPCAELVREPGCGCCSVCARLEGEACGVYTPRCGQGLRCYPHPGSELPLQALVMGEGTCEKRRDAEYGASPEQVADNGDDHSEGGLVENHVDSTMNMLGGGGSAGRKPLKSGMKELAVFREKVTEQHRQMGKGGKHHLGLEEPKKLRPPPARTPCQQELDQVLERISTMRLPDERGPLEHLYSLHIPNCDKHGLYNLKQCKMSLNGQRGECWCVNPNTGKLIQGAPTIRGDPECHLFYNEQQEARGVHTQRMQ

IGFBP-3 = IGFBP-3 (UniProt P17936 28-291); assay: as above
56662 [1] = molecular target: T2, 56662 (UniProt P17936-1 28-291); assay: as above
T2 construct: Fc dimer; also called BP3-Fc; IGFBP-3-Fc; source: 293T cells, transfected, conditioned medium, purified (protein A Sepharose); not shown: Fc (IgG1), C-terminal, kept

IGFBP-7 = molecular target: T3, IGFBP-7 (UniProt Q16270 27-282); assay: as above
T3 sequence (looked up): B4 chain

[2] = molecular target: T4, insulin-like growth factor-2 (UniProt P01344 25-91); assay: SPR; IGF binding protein or Fc fusion amine-coupled to a CM4 chip, growth factor as analyte; Biacore T100 or T200, HBS-P, BSA (0.2 mg/ml) or NaCl (0.65 M final) to reduce non-specific binding, 25 °C; 1:1 binding analysis
T4 construct: insulin-like growth factor 2, commercial growth factor; also called IGF2; IGF-2
T4 sequence (P01344 25-91): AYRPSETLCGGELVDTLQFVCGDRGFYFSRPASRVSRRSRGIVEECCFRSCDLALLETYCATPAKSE

[3] = molecular target: T5, insulin-like growth factor-1 (UniProt P05019 49-118); assay: as above
T5 construct: insulin-like growth factor 1, commercial growth factor; also called IGF1; IGF-1
T5 sequence (P05019 49-118): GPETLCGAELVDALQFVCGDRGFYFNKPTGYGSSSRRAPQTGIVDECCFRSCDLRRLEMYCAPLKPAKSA

hepatocyte growth factor [4] = molecular target: T6, hepatocyte growth factor (UniProt P14210 32-728); assay: SPR; growth factor amine-coupled to a CM4 chip, Fc fusion as analyte (values marked * in Table 1); Biacore T100/T200; HBS-P, with 0.2 mg/ml BSA or 0.65 M NaCl to reduce non-specific binding; 25 °C; 1:1 binding fit
T6 construct: hepatocyte growth factor; also called HGF; source: bought
T6 sequence (P14210 32-728): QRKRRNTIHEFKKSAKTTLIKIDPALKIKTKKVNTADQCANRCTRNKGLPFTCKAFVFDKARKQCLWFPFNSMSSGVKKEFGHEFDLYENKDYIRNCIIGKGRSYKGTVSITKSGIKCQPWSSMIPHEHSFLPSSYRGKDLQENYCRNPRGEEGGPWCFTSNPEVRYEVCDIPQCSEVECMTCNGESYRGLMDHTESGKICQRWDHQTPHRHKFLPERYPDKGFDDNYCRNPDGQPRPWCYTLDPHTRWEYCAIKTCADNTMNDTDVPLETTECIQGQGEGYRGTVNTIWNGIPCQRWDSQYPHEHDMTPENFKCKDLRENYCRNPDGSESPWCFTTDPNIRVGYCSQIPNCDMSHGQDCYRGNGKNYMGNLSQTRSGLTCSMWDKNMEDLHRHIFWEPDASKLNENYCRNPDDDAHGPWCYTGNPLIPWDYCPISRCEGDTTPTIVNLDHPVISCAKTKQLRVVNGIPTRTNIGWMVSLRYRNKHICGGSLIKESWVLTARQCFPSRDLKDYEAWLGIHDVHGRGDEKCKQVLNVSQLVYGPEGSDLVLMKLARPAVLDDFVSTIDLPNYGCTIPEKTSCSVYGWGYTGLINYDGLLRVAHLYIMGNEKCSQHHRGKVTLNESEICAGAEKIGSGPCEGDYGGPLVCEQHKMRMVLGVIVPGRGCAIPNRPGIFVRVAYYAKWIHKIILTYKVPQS

bFGF = molecular target: T7, bFGF (UniProt P09038 143-288); assay: as above
T7 construct: basic fibroblast growth factor; also called basic FGF
T7 sequence (P09038 143-288): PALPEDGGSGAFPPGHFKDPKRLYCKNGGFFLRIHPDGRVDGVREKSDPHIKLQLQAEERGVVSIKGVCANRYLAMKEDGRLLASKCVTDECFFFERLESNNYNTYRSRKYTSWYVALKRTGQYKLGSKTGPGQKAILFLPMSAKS

VEGF-B = molecular target: B1; assay: as above
PDGF BB = molecular target: B7; assay: as above
neuregulin-1 = neuregulin-1 (UniProt Q02297 20-241); assay: as above
Sequence of neuregulin-1 (Q02297 20-241): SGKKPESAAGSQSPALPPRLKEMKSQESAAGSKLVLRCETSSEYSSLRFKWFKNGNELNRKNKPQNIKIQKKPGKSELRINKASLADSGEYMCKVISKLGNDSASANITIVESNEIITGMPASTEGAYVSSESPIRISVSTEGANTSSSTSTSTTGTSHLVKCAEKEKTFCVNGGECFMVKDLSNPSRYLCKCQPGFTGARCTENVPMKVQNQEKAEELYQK

[5] = molecular target: T8, insulin-like growth factor-1 (UniProt P05019 49-118); assay: SPR; IGF binding protein or Fc fusion amine-coupled to a CM4 chip, growth factor as analyte; Biacore T100/T200; HBS-P, with 0.2 mg/ml BSA or 0.65 M NaCl to reduce non-specific binding; 25 °C; 1:1 binding fit
T8 construct: insulin-like growth factor 1; also called IGF1; IGF-1
T8 sequence (P05019 49-118): as the sequence (P05019 49-118) above

[6] = molecular target: T9, insulin-like growth factor-2 (UniProt P01344 25-91); assay: as above
T9 construct: insulin-like growth factor 2; also called IGF2; IGF-2
T9 sequence (P01344 25-91): as the sequence (P01344 25-91) above

hepatocyte growth factor [7] = molecular target: T10, hepatocyte growth factor (UniProt P14210 32-728); assay: SPR; IGF binding protein or Fc fusion amine-coupled to a CM4 chip, growth factor as analyte; Biacore T100 or T200, HBS-P, BSA (0.2 mg/ml) or NaCl (0.65 M final) to reduce non-specific binding, 25 °C; 1:1 binding analysis
T10 construct: hepatocyte growth factor, commercial; Mature HGF is a two-chain (alpha/beta) product of one precursor; the preparation is said to hold both processed and unprocessed forms; also called HGF; source: expressed in insect cells
T10 sequence (P14210 32-728): as the sequence (P14210 32-728) above

Chimera A = molecular target: T11, Chimera A; assay: SPR; growth factor amine-coupled to a CM4 chip, Fc fusion as analyte (values marked * in Table 1); Biacore T100/T200; HBS-P, with 0.2 mg/ml BSA or 0.65 M NaCl to reduce non-specific binding; 25 °C; 1:1 binding fit
T11 construct: VEGF receptor 1 domain 2, first part of VEGF-trap; VEGF receptor 2 domain 3, second part of VEGF-trap; VEGF-trap inserted between the IGFBP-3 and the Fc domain; Fc dimer; also called chA; BP3-VEGF-trap-Fc; source: 293T cells, transfected, conditioned medium, purified (protein A Sepharose); not shown: Fc (IgG1), C-terminal, kept
T11 sequence (Q02297 20-241, stated change not applied): as the sequence (Q02297 20-241) above

56662 [8] = molecular target: T2, 56662; assay: as above
56662 [9] = molecular target: T12, 56662 (UniProt P17936-1 28-291); assay: SPR; IGF binding protein or Fc fusion amine-coupled to a CM4 chip, growth factor as analyte; Biacore T100 or T200, HBS-P, BSA (0.2 mg/ml) or NaCl (0.65 M final) to reduce non-specific binding, 25 °C; 1:1 binding analysis
T12 construct: the secretory signal peptide was derived from IGFBP-2; Fc portion of IgG1 added to the C terminus of IGFBP-3; called an Fc dimer; Probably the mature IGFBP-3 after removal of the IGFBP-2 signal peptide; also called IGFBP-3-Fc; BP3-Fc (unmodified IGFBP-3 Fc construct); source: 293 T cells, transfected; conditioned medium purified by proteinA Sepharose; not shown: Fc (IgG1), C-terminal, kept

56662 [10] = molecular target: T12, 56662; assay: SPR; growth factor immobilised on a CM4 chip instead of the binding protein (asterisk in Table 1), binding protein or Fc fusion as analyte; HBS-P, 25 °C; regeneration with 4 M MgCl2 then 5 M guanidinium chloride; 1:1 binding analysis

B1
koff (IGFBP-2): 0.000441 s⁻¹
kon (IGFBP-2): 157000 M⁻¹ s⁻¹
koff (IGFBP-3): 0.000751 s⁻¹
kon (IGFBP-3): 96600 M⁻¹ s⁻¹
koff 56662 [1]: 0.000284 s⁻¹
kon 56662 [1]: 45000 M⁻¹ s⁻¹
koff (IGFBP-7): 0.00277 s⁻¹
kon (IGFBP-7): 875000 M⁻¹ s⁻¹

B2
Kd [2]: 0.22 nM
Kd [3]: 0.51 nM

B3
koff (hepatocyte growth factor [4]): 0.000291 s⁻¹
kon (hepatocyte growth factor [4]): 110000 M⁻¹ s⁻¹
koff (bFGF): 0.000529 s⁻¹
kon (bFGF): 161000 M⁻¹ s⁻¹
koff (VEGF-B): 0.000445 s⁻¹
kon (VEGF-B): 25000 M⁻¹ s⁻¹
koff (PDGF BB): 0.00175 s⁻¹
kon (PDGF BB): 550000 M⁻¹ s⁻¹
koff (neuregulin-1): 0.00053 s⁻¹
kon (neuregulin-1): 270000 M⁻¹ s⁻¹
koff [5]: 8.36e-05 s⁻¹
kon [5]: 163000 M⁻¹ s⁻¹
koff [6]: 0.00185 s⁻¹
kon [6]: 8.25e+06 M⁻¹ s⁻¹

B4
binding result (hepatocyte growth factor [7]): binds

B5
koff (Chimera A): 0.000291 s⁻¹
kon (Chimera A): 394000 M⁻¹ s⁻¹
koff 56662 [8]: 0.00443 s⁻¹
kon 56662 [8]: 481000 M⁻¹ s⁻¹
koff (IGFBP-3): 0.000883 s⁻¹
kon (IGFBP-3): 425000 M⁻¹ s⁻¹
koff (IGFBP-7): 0.00129 s⁻¹
kon (IGFBP-7): 800 M⁻¹ s⁻¹

B6
Kd 56662 [9]: 0.52 nM
Kd 56662 [10]: 4.19 nM

B7
koff 56662 [8]: 0.000562 s⁻¹
kon 56662 [8]: 259000 M⁻¹ s⁻¹
